In publication PMC4383175 one finds Kd and stoichiometry N (receptors per HpHb) data, which are given here for 3 substances.

One may read the Kd as the concentration at which binding is half-saturated. A high value points to weaker binding.

The target in assay [1] is Trypanosoma brucei haptoglobin-haemoglobin receptor, truncated N-terminal ligand-binding domain (residues 36-299) (Trypanosoma brucei brucei) (UniProt Q581F2). Briefly: SPR. (SPR reads the build-up and loss of mass on a sensor chip optically.)
Assay [2] has as its target Native (dimeric) human haptoglobin-haemoglobin complex (Hp 1-1 with Hb) (human) (UniProt P00738). The assay is described as follows: SEC-MALS.
Assay [3] shares this target. Briefly: SEC-SAXS. Background: SEC sorts molecules by how far they enter the pores of the column.

In turn, “HpSPHb complex: serine protease domain of human haptoglobin (148-406) bound to a human haemoglobin alpha-beta dimer (from UniProt P00738 148-406)” registered a Kd in assay [1] of 700 nM. On to “Trypanosoma brucei haptoglobin-haemoglobin receptor, truncated N-terminal ligand-binding domain (residues 36-299) (from UniProt Q581F2 36-299)”, for which the stoichiometry N (receptors per HpHb) in assay [2] and in assay [3] was 2 in each case.

On to “HprSPHb complex: serine protease domain of human haptoglobin-related protein (90-348) bound to human haemoglobin (from UniProt P00739 90-348)”, for which the Kd in assay [1] came to 1700 nM.
